Tests used:
Conditions in all cases: remark: other sources report otherwise
[1] = target: T1, EB1-GFP (C-terminally EGFP-His-tagged human EB1) (human), Q15691; assay: AUC; fluorescence sedimentation velocity (GFP signal at 488 nm), 22°C; dilution series from about 500 to about 0.5 nM (monomer equivalents); 20 mM Tris-HCl pH 7.5, 300 mM NaCl, 0.2 mg/ml BSA, 2 mM DTT or 0.1 mM TCEP; samples incubated 16 hours at 22°C; dimer to monomers; apparent Kd
T1 chain: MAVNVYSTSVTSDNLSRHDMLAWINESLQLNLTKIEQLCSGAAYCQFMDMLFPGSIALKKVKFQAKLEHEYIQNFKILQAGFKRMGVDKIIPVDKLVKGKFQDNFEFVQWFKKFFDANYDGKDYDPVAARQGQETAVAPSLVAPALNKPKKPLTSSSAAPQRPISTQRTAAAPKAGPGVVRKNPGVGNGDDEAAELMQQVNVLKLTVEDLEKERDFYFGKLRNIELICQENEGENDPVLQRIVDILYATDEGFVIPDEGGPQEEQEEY

[2] = target: T1, EB1-GFP (C-terminally EGFP-His-tagged …); assay: SEC-MALS; Superdex 200 10/30 with in-line multi-angle light scattering; 1 to 4 mg/ml injected in 100 µl (about 1 µM at the peak); 20 mM Tris-HCl pH 7.5, 300 mM NaCl, 2 mM DTT; room temperature; single experiments
[3] = target: T2, EB1-GFP[A206K] (human), Q15691; assay: AUC; fluorescence sedimentation velocity (GFP signal at 488 nm), 22°C; dilution series from about 500 to about 0.5 nM (monomer equivalents); 20 mM Tris-HCl pH 7.5, 300 mM NaCl, 0.2 mg/ml BSA, 2 mM DTT or 0.1 mM TCEP; samples incubated 16 hours at 22°C; dimer to monomers; apparent Kd
T2 chain: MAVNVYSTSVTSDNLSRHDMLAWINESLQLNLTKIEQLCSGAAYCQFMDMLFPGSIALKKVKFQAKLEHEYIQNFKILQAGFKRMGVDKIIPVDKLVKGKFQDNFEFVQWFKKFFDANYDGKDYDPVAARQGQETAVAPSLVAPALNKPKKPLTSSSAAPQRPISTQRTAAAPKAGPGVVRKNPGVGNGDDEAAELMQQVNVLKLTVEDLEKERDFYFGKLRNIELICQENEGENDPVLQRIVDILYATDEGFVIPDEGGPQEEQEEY

Binder | stoichiometry N [1] | stoichiometry N [2] | stoichiometry N [3]
EB1-GFP (C-terminally EGFP-His-tagged human EB1), Q15691 1-268 (natural protein) MAVNVYSTSVTSDNLSRHDMLAWINESLQLNLTKIEQLCSGAAYCQFMDMLFPGSIALKKVKFQAKLEHEYIQNFKILQAGFKRMGVDKIIPVDKLVKGKFQDNFEFVQWFKKFFDANYDGKDYDPVAARQGQETAVAPSLVAPALNKPKKPLTSSSAAPQRPISTQRTAAAPKAGPGVVRKNPGVGNGDDEAAELMQQVNVLKLTVEDLEKERDFYFGKLRNIELICQENEGENDPVLQRIVDILYATDEGFVIPDEGGPQEEQEEY | 2 | 2 | –
EB1-GFP[A206K], Q15691 1-268 (natural protein) MAVNVYSTSVTSDNLSRHDMLAWINESLQLNLTKIEQLCSGAAYCQFMDMLFPGSIALKKVKFQAKLEHEYIQNFKILQAGFKRMGVDKIIPVDKLVKGKFQDNFEFVQWFKKFFDANYDGKDYDPVAARQGQETAVAPSLVAPALNKPKKPLTSSSAAPQRPISTQRTAAAPKAGPGVVRKNPGVGNGDDEAAELMQQVNVLKLTVEDLEKERDFYFGKLRNIELICQENEGENDPVLQRIVDILYATDEGFVIPDEGGPQEEQEEY | – | – | 2

From article PMC3765442
